Data: patent US20250270332A1

Molecular target: FZD1/2/4/5/7/8
Assay: cell-based or functional assay

Row | % Wnt Maxima Avg | EC50 (nM), TOPFLASH assay | Maximal Signal (% Wnt3a maxima) (% Wnt3a maxima) | Topflash EC50 (nM) Avg | Binder
1 | 42% | 0.4 nM | 42 | 0.4 nM | CT0003 (bispecific antibody) chain 1: MNLLLILTFVAAAVAEFEVQLVESGGGLVQPGGSLRLSCAASGFNISSYYIHWVRQAPGKGLEWVASIYSSYGYTSYADSVKGRFTISADTSKNTAYLQMNSLRAEDTAVYYCARTVRGSKKPYFSGWAMDYWGQGTLVTVSSGGGGSDIQMTQSPSSLSASVGDRVTITCRASQSVSSAVAWYQQKPGKAPKLLIYSASSLYSGVPSRFSGSRSGTDFTLTISSLQPEDFATYYCQQYSWGPFTFGQGTKVEIKLEDKTHTKVEPKSSDKTHNCPPCPAPELLGGPSVFLFPPKPKDTLMISRTPEVTCVVVDVSHEDPEVKFNWYVDGVEVHNAKTKPREEQYNSTYRVVSVLTVLHQDWLNGKEYKCKVSNKALPAPIEKTISKAKGQPREPQVYTLPPIRELMTSNQVSLSCAVKGFYPSDIAVEWESNGQPENNYKTTPPVLDSDGSFFLVSKLTVDKSRWQQGNVFSCSVMHEALHNHYTQKSLSLSPGKSGSETPGTSESATPESGGGEVQLVESGGGLVQPGGSLRLSCAASGFNIHSSSIHWVRQAPGKGLEWVAATYSSFGSITYADSVKGRFTISADTSKNTAYLQMNSLRAEDTAVYYCARYHHPFGYALDYWGQGTLVTVSSGTTAASGSSGGSSSGADIQMTQSPSSLSASVGDRVTITCRASQSVSSAVAWYQQKPGKAPKLLIYSASSLYSGVPSRFSGSRSGTDFTLTISSLQPEDFATYYCQQGVYLFTFGQGTKVEIK chain 2: MNLLLILTFVAAAVAEFEVQLVESGGGLVQPGGSLRLSCAASGFNISYSSIHWVRQAPGKGLEWVAYISSYYGYTYYADSVKGRFTISADTSKNTAYLQMNSLRAEDTAVYYCARAHYFPWAGAMDYWGQGTLVTVSSGGGGDIQMTQSPSSLSASVGDRVTITCRASQSVSSAVAWYQQKPGKAPKLLIYSASSLYSGVPSRFSGSRSGTDFTLTISSLQPEDFATYYCQQYYWPITFGQGTKVEIKLEDKTHTKVEPKTSDKTHTCPPCPAPELLGGPSVFLFPPKPKDTLMISRTPEVTCVVVDVSHEDPEVKFNWYVDGVEVHNAKTKPREEQYNSTYRVVSVLTVLHQDWLNGKEYKCKVSNKALPAPIEKTISKAKGQPREPMVFDLPPSREEMTKNQVSLWCMVKGFYPSDIAVEWESNGQPENNYKTTPPVLDSDGSFFLYSKLTVDKSRWQQGNVFSCSVMHEALHNHYTQKSLSLSPGKSGSETPGTSESATPESGGGEVQLVESGGGLVQPGGSLRLSCAASGFNIHSSSIHWVRQAPGKGLEWVAATYSSFGSITYADSVKGRFTISADTSKNTAYLQMNSLRAEDTAVYYCARYHHPFGYALDYWGQGTLVTVSSGTTAASGSSGGSSSGADIQMTQSPSSLSASVGDRVTITCRASQSVSSAVAWYQQKPGKAPKLLIYSASSLYSGVPSRFSGSRSGTDFTLTISSLQPEDFATYYCQQGVYLFTFGQGTKVEIK
2 | – | 0.4 nM | 42 | – | Fab-Dia (bispecific antibody) heavy: EVQLVESGGGLVQPGGSLRLSCAASGFNIHSSSIHWVRQAPGKGLEWVAATYSSFGSITYADSVKGRFTISADTSKNTAYLQMNSLRAEDTAVYYCARYHHPFGYALDYWGQGTLVTVSSASTKGPSVFPLAPSSKSTSGGTAALGCLVKDYFPEPVTVSWNSGALTSGVHTFPAVLQSSGLYSLSSVVTVPSSSLGTQTYICNVNHKPSNTKVDKKVEPKSCDKTHTGGSGGEVQLVESGGGLVQPGGSLRLSCAASGFTISYSSIHWVRQAPGKGLEWVASISPYYGYTYYADSVKGRFTISADTSKNTAYLQMNSLRAEDTAVYYCARSSYFPWFSAMDYWGQGTLVTVSSGGGGSDIQMTQSPSSLSASVGDRVTITCRASQSVSSAVAWYQQKPGKAPKLLIYSASSLYSGVPSRFSGSRSGTDFTLTISSLQPEDFATYYCQQYYWPITFGQGTKVEIK light: DIQMTQSPSSLSASVGDRVTITCRASQSVSSAVAWYQQKPGKAPKLLIYSASSLYSGVPSRFSGSRSGTDFTLTISSLQPEDFATYYCQQGVYLFTFGQGTKVEIKRTVAAPSVFIFPPSDEQLKSGTASVVCLLNNFYPREAKVQWKVDNALQSGNSQESVTEQDSKDSTYSLSSTLTLSKADYEKHKVYACEVTHQGLSSPVTKSFNRGECGGGGSEVQLVESGGGLVQPGGSLRLSCAASGFTISSYYIHWVRQAPGKGLEWVASIYSSYGYTSYADSVKGRFTISADTSKNTAYLQMNSLRAEDTAVYYCARTVRGSKKPYFSGWAMDYWGQGTLVTVSSGGGGSDIQMTQSPSSLSASVGDRVTITCRASQSVSSAVAWYQQKPGKAPKLLIYSASSLYSGVPSRFSGSRSGTDFTLTISSLQPEDFATYYCQQYYFLITFGQGTKVEIK

The remaining lines, values behind:

Row | Binder | % Wnt Maxima Avg | EC50 (nM), TOPFLASH assay | Maximal Signal (% Wnt3a maxima) (% Wnt3a maxima) | Topflash EC50 (nM) Avg
3 | CM0011 (Dia-Fc-Dia) (bispecific antibody) chain 1: MNLLLILTFVAAAVAEFEVQLVESGGGLVQPGGSLRLSCAASGFNIGSSSIHWVRQAPGKGLEWVASIYSAFASTSYADSVKGRFTISADTSKNTAYLQMNSLRAEDTAVYYCARYHFPFGFALDYWGQGTLVTVSSGGGGSDIQMTQSPSSLSASVGDRVTITCRASQSVSSAVAWYQQKPGKAPKLLIYSASSLYSGVPSRFSGSRSGTDFTLTISSLQPEDFATYYCQQGVYLFTFGQGTKVEIKLEDKTHTKVEPKSSDKTHNCPPCPAPELLGGPSVFLFPPKPKDTLMISRTPEVTCVVVDVSHEDPEVKFNWYVDGVEVHNAKTKPREEQYNSTYRVVSVLTVLHQDWLNGKEYKCKVSNKALPAPIEKTISKAKGQPREPQVYTLPPIRELMTSNQVSLSCAVKGFYPSDIAVEWESNGQPENNYKTTPPVLDSDGSFFLVSKLTVDKSRWQQGNVFSCSVMHEALHNHYTQKSLSLSPGKSGSETPGTSESATPESGGGEVQLVESGGGLVQPGGSLRLSCAASGFNISSYYIHWVRQAPGKGLEWVASIYSSYGYTSYADSVKGRFTISADTSKNTAYLQMNSLRAEDTAVYYCARTVRGSKKPYFSGWAMDYWGQGTLVTVSSGGGGSDIQMTQSPSSLSASVGDRVTITCRASQSVSSAVAWYQQKPGKAPKLLIYSASSLYSGVPSRFSGSRSGTDFTLTISSLQPEDFATYYCQQYSWGPFTFGQGTKVEIK chain 2: MNLLLILTFVAAAVAEFEVQLVESGGGLVQPGGSLRLSCAASGFNIGSSSIHWVRQAPGKGLEWVASIYSAFASTSYADSVKGRFTISADTSKNTAYLQMNSLRAEDTAVYYCARYHFPFGFALDYWGQGTLVTVSSGGGGSDIQMTQSPSSLSASVGDRVTITCRASQSVSSAVAWYQQKPGKAPKLLIYSASSLYSGVPSRFSGSRSGTDFTLTISSLQPEDFATYYCQQGVYLFTFGQGTKVEIKLEDKTHTKVEPKTSDKTHTCPPCPAPELLGGPSVFLFPPKPKDTLMISRTPEVTCVVVDVSHEDPEVKFNWYVDGVEVHNAKTKPREEQYNSTYRVVSVLTVLHQDWLNGKEYKCKVSNKALPAPIEKTISKAKGQPREPMVFDLPPSREEMTKNQVSLWCMVKGFYPSDIAVEWESNGQPENNYKTTPPVLDSDGSFFLYSKLTVDKSRWQQGNVFSCSVMHEALHNHYTQKSLSLSPGKSGSETPGTSESATPESGGGEVQLVESGGGLVQPGGSLRLSCAASGFNISYSSIHWVRQAPGKGLEWVAYISSYYGYTYYADSVKGRFTISADTSKNTAYLQMNSLRAEDTAVYYCARAHYFPWAGAMDYWGQGTLVTVSSGGGGSDIQMTQSPSSLSASVGDRVTITCRASQSVSSAVAWYQQKPGKAPKLLIYSASSLYSGVPSRFSGSRSGTDFTLTISSLQPEDFATYYCQQYYWPITFGQGTKVEIK | 63% | 0.3 nM | 63 | 0.3 nM
4 | CH3 (Dia-CH3-Dia) (bispecific antibody) MNLLLILTFVAAAVAEFEVQLVESGGGLVQPGGSLRLSCAASGFNIGSSSIHWVRQAPGKGLEWVASIYSAFASTSYADSVKGRFTISADTSKNTAYLQMNSLRAEDTAVYYCARYHFPFGFALDYWGQGTLVTVSSGGGGSDIQMTQSPSSLSASVGDRVTITCRASQSVSSAVAWYQQKPGKAPKLLIYSASSLYSGVPSRFSGSRSGTDFTLTISSLQPEDFATYYCQQGVYLFTFGQGTKVEIKDKTHTKVEPKTSDKTHTCPPCPGQPREPQVYTLPPSREEMTKNQVSLTCLVKGFYPSDIAVEWESNGQPENNYKTTPPVLDSDGSFFLYSKLTVDKSRWQQGNVFSCSVMHEALHNHYTQKSLSLSPGKGTTAASGSSGGSSSGAGRTEVQLVESGGGLVQPGGSLRLSCAASGFNISYSSIHWVRQAPGKGLEWVAYISSYYGYTYYADSVKGRFTISADTSKNTAYLQMNSLRAEDTAVYYCARAHYFPWAGAMDYWGQGTLVTVSSGGGGSDIQMTQSPSSLSASVGDRVTITCRASQSVSSAVAWYQQKPGKAPKLLIYSASSLYSGVPSRFSGSRSGTDFTLTISSLQPEDFATYYCQQYSWGPFTFGQGTKVEIK | – | – | 22 | –
